{"source": "paper PMC5605622", "about": "“Agdc1p – a Gallic Acid Decarboxylase Involved in the Degradation of Tannic Acid in the Yeast Blastobotrys (Arxula) adeninivorans” (Frontiers in Microbiology, 2017)", "proteins": {"B1": {"name": "Agdc1-6hp (Agdc1p, gallic acid decarboxylase) (Blastobotrys adeninivorans) (protein)", "chain": "MTTSYEPWPQLYSHLNGTNEEVLDRMKVAELCKGWSVYRDASEWANFKEMFTPDANIWTTWSGAQTIDSFIQISKDGKDKGAFIMHRECGTLVDLNPKTQRAIGKMKTTITQRFEYEGVPFDIDCDNYFIFFCLKDSNGDWKARWYKVFYVKDKFVPVGVPTAENMEKLAKLFSKENLEQYPWGYQYLAVAQANLGYPIDKKLPTWKNELYHTMYDAMKEWMEGKEIDLHW", "notes": "full-length ORF (696 bp, 232 residues as printed), C-terminal 6xHis tag kept, expressed in A. adeninivorans G1212, IMAC purified"}}, "key": {"purified protein [1]": {"substrate": "O=C(O)c1cc(O)c(O)c(O)c1", "assay": "purified protein", "type": "biochemical, Blastobotrys adeninivorans", "details": "50 mM potassium phosphate pH 6.2, 40 °C"}, "purified protein [2]": {"substrate": "O=C(O)c1ccc(O)c(O)c1", "assay": "purified protein", "type": "biochemical, Blastobotrys adeninivorans", "details": "50 mM potassium phosphate pH 6.2, 40 °C"}}, "data": [{"protein": "B1", "values": [{"measurement": "Km", "setting": "purified protein [1]", "result": "700 ± 200", "unit": "µM"}, {"measurement": "kcat", "setting": "purified protein [1]", "result": "42.0 ± 8.2", "unit": "s⁻¹"}, {"measurement": "Km", "setting": "purified protein [2]", "result": "3200 ± 200", "unit": "µM"}, {"measurement": "kcat", "setting": "purified protein [2]", "result": "44.0 ± 3.4", "unit": "s⁻¹"}]}]}
